B1: Apolipoprotein C-I (other)
chain: TPDVSSALDKLKEFGNTLEDKARELISRIKQSELSAKMREWFSETFQKVKEKLKIDS
notes: also called APOC1
B2: Ig gamma-2 chain C region (other)
chain: ASTKGPSVFPLAPCSRSTSESTAALGCLVKDYFPEPVTVSWNSGALTSGVHTFPAVLQSSGLYSLSSVVTVPSSNFGTQTYTCNVDHKPSNTKVDKTVERKCCVECPPCPAPPVAGPSVFLFPPKPKDTLMISRTPEVTCVVVDVSHEDPEVQFNWYVDGVEVHNAKTKPREEQFNSTFRVVSVLTVVHQDWLNGKEYKCKVSNKGLPAPIEKTISKTKGQPREPQVYTLPPSREEMTKNQVSLTCLVKGFYPSDISVEWESNGQPENNYKTTPPMLDSDGSFFLYSKLTVDKSRWQQGNVFSCSVMHEALHNHYTQKSLSLSPGK
notes: also called IGHG2
B3: Beta-2-glycoprotein 1 (other)
chain: GRTCPKPDDLPFSTVVPLKTFYEPGEEITYSCKPGYVSRGGMRKFICPLTGLWPINTLKCTPRVCPFAGILENGAVRYTTFEYPNTISFSCNTGFYLNGADSAKCTEEGKWSPELPVCAPIICPPPSIPTFATLRVYKPSAGNNSLYRDTAVFECLPQHAMFGNDTITCTTHGNWTKLPECREVKCPFPSRPDNGFVNYPAKPTLYYKDKATFGCHDGYSLDGPEEIECTKLGNWSAMPSCKASCKVPVKKATVVYQGERVKIQEKFKNGMLHGDKVSFFCKNKEKKCSYTEDAQCIDGTIEVPKCFKEHSSLAFWKTDASDVKPC
notes: also called APOH
B4: Isoform 2 of Ig mu chain C region (other)
chain: GSASAPTLFPLVSCENSPSDTSSVAVGCLAQDFLPDSITFSWKYKNNSDISSTRGFPSVLRGGKYAATSQVLLPSKDVMQGTDEHVVCKVQHPNGNKEKNVPLPVIAELPPKVSVFVPPRDGFFGNPRKSKLICQATGFSPRQIQVSWLREGKQVGSGVTTDQVQAEAKESGPTTYKVTSTLTIKESDWLGQSMFTCRVDHRGLTFQQNASSMCVPDQDTAIRVFAIPPSFASIFLTKSTKLTCLVTDLTTYDSVTISWTRQNGEAVKTHTNISESHPNATFSAVGEASICEDDWNSGERFTCTVTHTDLPSPLKQTISRPKGVALHRPDVYLLPPAREQLNLRESATITCLVTGFSPADVFVQWMQRGQPLSPEKYVTSAPMPEPQAPGRYFAHSILTVSEEEWNTGETYTCVVAHEALPNRVTERTVDKSTEGEVSADEEGFENLWATASTFIVLFLLSLFYSTTVTLFKVK
notes: also called IGHM
B5: Glutathione peroxidase 3 (enzyme)
chain: QSRGQEKSKMDCHGGISGTIYEYGALTIDGEEYIPFKQYAGKYVLFVNVASYUGLTGQYIELNALQEELAPFGLVILGFPCNQFGKQEPGENSEILPTLKYVRPGGGFVPNFQLFEKGDVNGEKEQKFYTFLKNSCPPTSELLGTSDRLFWEPMKVHDIRWNFEKFLVGPDGIPIMRWHHRTTVSNVKMDILSYMRRQAALGVKRK
notes: also called GPX3
B6: C4b-binding protein alpha chain (other)
chain: NCGPPPTLSFAAPMDITLTETRFKTGTTLKYTCLPGYVRSHSTQTLTCNSDGEWVYNTFCIYKRCRHPGELRNGQVEIKTDLSFGSQIEFSCSEGFFLIGSTTSRCEVQDRGVGWSHPLPQCEIVKCKPPPDIRNGRHSGEENFYAYGFSVTYSCDPRFSLLGHASISCTVENETIGVWRPSPPTCEKITCRKPDVSHGEMVSGFGPIYNYKDTIVFKCQKGFVLRGSSVIHCDADSKWNPSPPACEPNSCINLPDIPHASWETYPRPTKEDVYVVGTVLRYRCHPGYKPTTDEPTTVICQKNLRWTPYQGCEALCCPEPKLNNGEITQHRKSRPANHCVYFYGDEISFSCHETSRFSAICQGDGTWSPRTPSCGDICNFPPKIAHGHYKQSSSYSFFKEEIIYECDKGYILVGQAKLSCSYSHWSAPAPQCKALCRKPELVNGRLSVDKDQYVEPENVTIQCDSGYGVVGPQSITCSGNRTWYPEVPKCEWETPEGCEQVLTGKRLMQCLPNPEDVKMALEVYKLSLEIEQLELQRDSARQSTLDKEL
notes: also called C4BPA
B7: Isoform 2 of Haptoglobin-related protein (other)
chain: MHVCVCVCVCVYMPVCVDACMCCEAGRPAFRSFLFSLCSDLGAVISLLLWGRQLFALYSGNDVTDISDDRFPKPPEIANGYVEHLFRYQCKNYYRLRTEGDGVYTLNDKKQWINKAVGDKLPECEAVCGKPKNPANPVQRILGGHLDAKGSFPWQAKMVSHHNLTTGATLINEQWLLTTAKNLFLNHSENATAKDIAPTLTLYVGKKQLVEIEKVVLHPNYHQVDIGLIKLKQKVLVNERVMPICLPSKNYAEVGRVGYVSGWGQSDNFKLTDHLKYVMLPVADQYDCITHYEGSTCPKWKAPKSPVGVQPILNEHTFCVGMSKYQEDTCYGDAGSAFAVHDLEEDTWYAAGILSFDKSCAVAEYGVYVKVTSIQHWVQKTIAEN
notes: also called HPR
B8: Ig gamma-3 chain C region (other)
chain: ASTKGPSVFPLAPCSRSTSGGTAALGCLVKDYFPEPVTVSWNSGALTSGVHTFPAVLQSSGLYSLSSVVTVPSSSLGTQTYTCNVNHKPSNTKVDKRVELKTPLGDTTHTCPRCPEPKSCDTPPPCPRCPEPKSCDTPPPCPRCPEPKSCDTPPPCPRCPAPELLGGPSVFLFPPKPKDTLMISRTPEVTCVVVDVSHEDPEVQFKWYVDGVEVHNAKTKPREEQYNSTFRVVSVLTVLHQDWLNGKEYKCKVSNKALPAPIEKTISKTKGQPREPQVYTLPPSREEMTKNQVSLTCLVKGFYPSDIAVEWESSGQPENNYNTTPPMLDSDGSFFLYSKLTVDKSRWQQGNIFSCSVMHEALHNRFTQKSLSLSPGK
notes: also called IGHG3
B9: Protein fem-1 homolog A (other)
chain: MDLRTAVYNAARDGKLQLLQKLLSGRSREELDELTGEVAGGGTPLLIAARYGHLDVVEYLVDRCGASVEAGGSVHFDGETIEGAPPLWAASAAGHLDVVRSLLRRGASVNRTTRTNSTPLRAACFDGHLEVVRYLVGEHQADLEVANRHGHTCLMISCYKGHREIARYLLEQGAQVNRRSAKGNTALHDCAESGSLEILQLLLGCKARMERDGYGMTPLLAASVTGHTNIVEYLIQEQPGQEQVAGGEAQPGLPQEDPSTSQGCAQPQGAPCCSSSPEEPLNGESYESCCPTSREAAVEALELLGATYVDKKRDLLGALKHWRRAMELRHQGGEYLPKPEPPQLVLAYDYSREVNTTEELEALITDPDEMRMQALLIRERILGPSHPDTSYYIRYRGAVYADSGNFERCIRLWKYALDMQQSNLEPLSPMTASSFLSFAELFSYVLQDRAAKGSLGTQIGFADLMGVLTKGVREVERALQLPREPGDSAQFTKALAIILHLLYLLEKVECTPSQEHLKHQTVYRLLKCAPRGKNGFTPLHMAVDKDTTNVGRYPVGRFPSLHVVKVLLDCGADPDSRDFDNNTPLHIAAQNNCPAIMNALIEAGAHMDATNAFKKTAYELLDEKLLARGTMQPFNYVTLQCLAARALDKNKIPYKGFIPEDLEAFIELH
notes: also called FEM1A
B10: Hemopexin (other)
chain: TPLPPTSAHGNVAEGETKPDPDVTERCSDGWSFDATTLDDNGTMLFFKGEFVWKSHKWDRELISERWKNFPSPVDAAFRQGHNSVFLIKGDKVWVYPPEKKEKGYPKLLQDEFPGIPSPLDAAVECHRGECQAEGVLFFQGDREWFWDLATGTMKERSWPAVGNCSSALRWLGRYYCFQGNQFLRFDPVRGEVPPRYPRDVRDYFMPCPGRGHGHRNGTGHGNSTHHGPEYMRCSPHLVLSALTSDNHGATYAFSGTHYWRLDTSRDGWHSWPIAHQWPQGPSAVDAAFSWEEKLYLVQGTQVYVFLTKGGYTLVSGYPKRLEKEVGTPHGIILDSVDAAFICPGSSRLHIMAGRRLWWLDLKSGAQATWTELPWPHEKVDGALCMEKSLGPNSCSANGPGLYLIHGPNLYCYSDVEKLNAAKALPQPQNVTSLLGCTH
notes: also called HPX
B11: Kininogen-1 (other)
chain: QESQSEEIDCNDKDLFKAVDAALKKYNSQNQSNNQFVLYRITEATKTVGSDTFYSFKYEIKEGDCPVQSGKTWQDCEYKDAAKAATGECTATVGKRSSTKFSVATQTCQITPAEGPVVTAQYDCLGCVHPISTQSPDLEPILRHGIQYFNNNTQHSSLFMLNEVKRAQRQVVAGLNFRITYSIVQTNCSKENFLFLTPDCKSLWNGDTGECTDNAYIDIQLRIASFSQNCDIYPGKDFVQPPTKICVGCPRDIPTNSPELEETLTHTITKLNAENNATFYFKIDNVKKARVQVVAGKKYFIDFVARETTCSKESNEELTESCETKKLGQSLDCNAEVYVVPWEKKIYPTVNCQPLGMISLMKRPPGFSPFRSSRIGEIKEETTVSPPHTSMAPAQDEERDSGKEQGHTRRHDWGHEKQRKHNLGHGHKHERDQGHGHQRGHGLGHGHEQQHGLGHGHKFKLDDDLEHQGGHVLDHGHKHKHGHGHGKHKNKGKKNGKHNGWKTEHLASSSEDSTTPSAQTQEKTEGPTPIPSLAKPGVTVTFSDFQDSDLIATMMPPISPAPIQSDDDWIPDIQIDPNGLSFNPISDFPDTTSPKCPGRPWKSVSEINPTTQMKESYYFDLTDGLS
notes: also called KNG1
B12: CD5 antigen-like (other)
chain: SPSGVRLVGGLHRCEGRVEVEQKGQWGTVCDDGWDIKDVAVLCRELGCGAASGTPSGILYEPPAEKEQKVLIQSVSCTGTEDTLAQCEQEEVYDCSHDEDAGASCENPESSFSPVPEGVRLADGPGHCKGRVEVKHQNQWYTVCQTGWSLRAAKVVCRQLGCGRAVLTQKRCNKHAYGRKPIWLSQMSCSGREATLQDCPSGPWGKNTCNHDEDTWVECEDPFDLRLVGGDNLCSGRLEVLHKGVWGSVCDDNWGEKEDQVVCKQLGCGKSLSPSFRDRKCYGPGVGRIWLDNVRCSGEEQSLEQCQHRFWGFHDCTHQEDVAVICSG
notes: also called CD5L

Biological target: T1, Adeno-associated virus 9 (AAV9) virion (adeno-associated virus 9)
T1 construct: Intact virion; capsid of VP1, VP2, VP3; also called AAV9/luc; AAV9 capsid
Experiment: co-IP with ADK9/LC-MS/MS, AAV9 + human serum vs control

Binder | fold change
B1 | 2 fold
B2 | 5.06 fold
B3 | 3.43 fold
B4 | 3 fold
B5 | 2.74 fold
B6 | 1.53 fold
B7 | 2.82 fold
B8 | 6.33 fold
B9 | 0.264 fold
B10 | 30.7 fold
B11 | 0.419 fold
B12 | 1.23 fold

Biological target: T2, Adeno-associated virus 8 (AAV8) virion (adeno-associated virus 8)
T2 construct: Intact virion with packaged vector genome; capsid of 60 subunits (VP1, VP2, VP3, overlapping products of one cap gene); also called AAV8/luc; AAV8 capsid
Experiment: co-IP/LC-MS/MS, AAV8 + human serum vs PBS control

Binder | fold change
B1 | 2 fold
B2 | 5.06 fold
B3 | 3.43 fold
B4 | 3 fold
B5 | 2.74 fold
B6 | 1.53 fold
B7 | 2.82 fold
B8 | 6.33 fold
B9 | 0.264 fold
B10 | 30.7 fold
B11 | 0.419 fold
B12 | 1.23 fold

From EP4707292A2 (The University of North Carolina at Chapel Hill, dated 2026)
